± gives the standard deviation of the averaged measurements.
Test system: ATP
Assay: switch fluorescence ratio, 500 uM ATP over buffer (Cy3 cluster intensity, sum of 5 cycles each) (fold (ratio)); higher = stronger signal-on switching upon ATP binding; sequences stand for … in TCGTCGGCAGCGTCAGATGTGTATAAGAGACAGTTTTTTTTTTTTTTTTTTTTTTTTT…TC
Conditions: aptamer strand: ATP DNA aptamer (quencher-CACCTGGGGGAGTATTGCGGAGGAAGG + anchor), 100 nM annealed; ATP concentration: 500 uM
Method in brief: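 Cy3-labelled switching-strand clusters on a modified Illumina MiSeq flow-cell were annealed to 100 nM quencher-labelled ATP aptamer, imaged in selection buffer, then imaged after 15 min with 500 uM ATP at 22 °C. Five buffer/ATP cycles ran, with NaOH stripping and re-annealing between them. The fluorescence ratio is summed target-cycle over summed buffer-cycle Cy3 intensity per cluster, averaged per switch-domain sequence. Clusters outside 100-1000 RFU were excluded.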
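Also: ATP exposure 15 min at 22 °C before imaging.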

Sequence	switch fluorescence ratio
GAGTACGGGA	1.09 ± 0.059
TCGGACGACC	1.15 ± 0.12
TAGGTGGCGC	1.08 ± 0.013
GGGAAATTAT	0.9917 ± 0.0045
ATGTTATTTT	1.013 ± 0.0049
TGTAGCAGCG	1.1 ± 0.16
CGCTTGGCTG	0.981 ± 0.051
GTGTTGCGGC	0.986 ± 0.016
TTGCTAAGCG	1.02 ± 0.012
TTATTCCTAT	1.02 ± 0.021
GCTACACGGC	1.02 ± 0.033
GGTTTTTGCG	1.0217 ± 0.0008
TGGTGAAATG	1 ± 0.013
AGTTGAGGGC	0.98 ± 0.047
AGATTTGCTA	1.004 ± 0.0078
CAAGGTTGAG	0.979 ± 0.034
TAAGGTAGGT	0.993 ± 0.016
ATCGCGGGGT	0.979 ± 0.025
TGATGGAAGG	0.958 ± 0.06
TATGAAGCCT	1.16 ± 0.02
GGGTTCTCTC	0.98 ± 0.011
CTGTGGATGG	1.01 ± 0.041
ATAGATGAGG	1.007 ± 0.0046
CTCTGGGTTG	1.07 ± 0.13
CCGGTTTTTG	1.01 ± 0.05

Sequence	switch fluorescence ratio
AATCATAGGG	1.011 ± 0.0087
CTGGAGGTTG	0.998 ± 0.041
CATGGGGGCT	0.964 ± 0.024
AGAACCTGGG	0.981 ± 0.055
GAGGGTCCTA	0.9994 ± 0.0054
GAGATGAGCG	0.997 ± 0.035
ATATAAATTA	1.01 ± 0.05
CACTAACTA	1.121 ± 0.0035
AACATTTTTG	0.998 ± 0.026
TAAGTATTCG	0.9972 ± 0.0086
GGGCGTTTTT	0.992 ± 0.017
TTCGTACGTC	1.01 ± 0.029
CGGGGGAGCT	1.02 ± 0.029
CGGCTGGCGA	1.01 ± 0.059
TGGCGTTTTT	1.01 ± 0.023
TAAAGCTTTT	1.09 ± 0.16
GATTTTCCTT	1.01 ± 0.027
AACTGTTTCG	0.9707 ± 0.0013
TAAGGCGTTA	0.985 ± 0.031
CATAATTTTA	1.007 ± 0.01
AGCGGTCAGT	0.9776 ± 0.0075
TATTGAGTAA	1.02 ± 0.02
CTGCTTGTGA	1.02 ± 0.026
GTATAGGGAA	1.004 ± 0.0071
TTTGGCTATT	0.976 ± 0.028

Sequence	switch fluorescence ratio
AAGTACTTGG	1.17 ± 0.017
TCGTCAACGG	1.01 ± 0.023
GAAATTACAG	0.994 ± 0.016
CGGAATGGTT	1.04 ± 0.036
GTGTGTGGAC	1.01 ± 0.026
AATAGGATCG	1.01 ± 0.045
TTGAGTGTTT	1.02 ± 0.017
GACAAAGATT	1.0037 ± 0.00037
GTGTGTTCGC	0.9546 ± 0.0069
ATGTAAAAAC	0.965 ± 0.029
ATACTTTTGC	0.952 ± 0.034
GATTTTCACT	0.9903 ± 0.0092
TCAAATTGCC	0.982 ± 0.016
TAGTTTGTTA	0.987 ± 0.027
TGTTATTGTT	1.03 ± 0.012
TCATTTTGGG	0.999 ± 0.028
GTAGGAATGT	1.03 ± 0.036
GTCAAAAAGT	0.985 ± 0.028
AGTTTTTTGC	0.908 ± 0.025
ATGGCAATGT	1.08 ± 0.013
TGTTATACAT	1.01 ± 0.024
CGTTGGAGCG	1 ± 0.03
ACCAGAGGTA	1.01 ± 0.014
CGGGGGGTCA	1.01 ± 0.018
CAGTAGCGGT	1.97 ± 0.35

Sequence	switch fluorescence ratio
GGGGAAGTTT	0.998 ± 0.027
GTAGTTTTGA	0.981 ± 0.018
TTAAGGGATA	1.03 ± 0.082
TATCTATGAG	1.01 ± 0.046
TTCTTAGTGT	0.97 ± 0.027
CTGGGAGGGA	0.991 ± 0.035
TTTTAATGTG	1 ± 0.016
GGTTAGGAAG	1.005 ± 0.0037
CCAAAGATTG	0.993 ± 0.064
CAGTTTTTAT	1.01 ± 0.026
GAGATAAGAG	1.01 ± 0.022
CCAAAGGGAC	1.089 ± 0.0061
ATCTTATTTG	1.01 ± 0.033
GACTGTAGGA	1.03 ± 0.0051
TTTGGCCAAG	0.996 ± 0.029
TTTGCCTGTA	0.992 ± 0.032
TTACTAGGCA	1.01 ± 0.012
AATTAATGCA	1.01 ± 0.038
GGCTTGAAGG	1.03 ± 0.032
TGGTTTTTGC	0.961 ± 0.057
CGTCGGCAAA	3.42 ± 0.21
GCTGGTACTG	0.986 ± 0.037
TTGGGCACGG	0.991 ± 0.0052
GGCAATGGTT	1.1 ± 0.11
TTTTTCGGGA	1 ± 0.023

Source: the supplement of paper PMC10126150
